# Measurements reported in patent US11702666B2, “Cell-based assay for determining activity in the retinoblastoma pathway” (Medical Diagnostic Laboratories, LLC, priority 2017, dated 2023).
# Read-outs that look alike come from different tables or passages of the source.
# B1: CDK4 R24A: CDK4 mutant, literature hyperactive (protein)
# chain: ATSRYEPVAEIGVGAYGTVYKAADPHSGHFVALKSVRVPNGGGGGGGLPISTVREVALLRRLEAFEHPNVVRLMDVCATSRTDREIKVTLVFEHVDQDLRTYLDKAPPPGLPAETIKDLMRQFLRGLDFLHANCIVHRDLKPENILVTSGGTVKLADFGLARIYSYQMALTPVVVTLWYRAPEVLLQSTYATPVDMWSVGCIFAEMFRRKPLFCGNSEADQLGKIFDLIGLPPEDDWPRDVSLPRGAFPPRGPRPVQSVVPEMEESGAQLLLEMLTFNPHKRISAFRALQHSYLHKDEGNPE
# Assays:
# CDK6 = molecular target: T1, CDK6 (Homo sapiens, UniProt Q00534, R31C); assay: p16 activity assay with CDK6 (NanoBiT, cell line #11); type: cell-based; conditions: compared to WT CDK6
# T1 construct: expressed in transfected cells; host or cells: HEK293 CDK4/CDK6 double-knockout cells stably expressing E2F1-Dp-1-LB (clone #11); early experiments in plain HEK293
# From the text: (§1) We developed an assay that could measure the interaction between Rb, E2F1 and Dp-1. When the Rb and E2F1 proteins are in close proximity or in complex, a light signal is observed. For the purpose of the assay, split-luciferase complementation was used to measure the interaction between Rb and E2F1, which served as a surrogate measure of CDK4/6 activity and the ability of CDK4/6 to respond to the natural inhibitor p16. The NanoBiT assay system by Promega (Madison, Wis.; Dixon et al., 2015, ACS ChemBiol) was used in the split luciferase complementation design. FIG. 24 depicts a design of a signal system to measure p16 activity. Under basal conditions inside the cell, Rb is active and interacts with the E2F1/Dp-1 heterodimer. However, in the presence of the CDK4 or CDK6, Rb gets phosphorylated and released from the interacting complex. In the presence of the natural inhibitor p16, CDK4/6 is no longer available to phosphorylate Rb and thus promoting the Rb/E2F1-Dp-1 complex formation.
# For the purpose of the current assay, the stable cell line #11 that we generated for the CDK activity assay was used and described above. HEK293 CDK DKO cells containing E2F1-Dp-1-LB was transiently transfected with CDK4/CDK6, CyclinD1, and SB-Rb. The transfected cells were then exposed to the natural inhibitor p16 (FIG. 25). […]
# Rb/E2F1-Dp-1 complex [1] = assay: CDK6 mutant activity / drug resistance in NanoBiT assay, stable cell line #11; type: cell-based, human; conditions: CDK6 mutants
# Protocol: A linear expression cassette of mutated CDK4 or CDK6 was generated by PCR mediated overlapping extension method. A pair of forward and reverse primers containing the targeted mutations was designed. The mutated codon was located in the middle of a primer flanked by 18-21 nucleotides on each side. Two PCRs (named as PCR #1 and PCR #2 in FIG. 1) were performed using UF-CMV forward and mutated reverse primers, or mutated forward and BGH-UR primers. The PCR products were cleaned up by ExoSAP-IT® (Affymetrix) to remove unconsumed dNTPs and primers. The treated PCR products were mixed together followed by dilution with water. A second round of PCR was performed using the diluted PCR mixture, and the UF and UR primers (FIG. 1). The amplified products were gel-purified. The DNA concentration was quantitated by the optical density at 260 nm using Nanodrop. The targeted mutations were incorporated in the CDK4 or CDK6 genes during the PCR mediated overlapping extension method. The introduced mutations were confirmed by the DNA sequencing.
# To examine the ability of the assay to detect variants in CDK4 or CDK6 that affect function, kinase dead mutants and COSMIC (Catalogue Of Somatic Mutations in cancer) unknown mutants were created. For comparison, hyperactive CDK4 or CDK6 mutants known to be hyperactive due to less binding to natural inhibitor p16 were also created. The mutations in CDK4 or CDK6 were created by site-directed mutagenesis. WT or mutated CDK4 or CDK6 along with the CyclinD1 and SB-Rb were co-transfected, under similar conditions as previously indicated (see FIG. 9).
# Computer modeling was used to reveal the drug-binding pocket and predict drug-resistant mutants. The mutations in CDK4 and CDK6 were created by site-directed mutagenesis. WT or mutated CDK4 or CDK6 along with the CyclinD1 and SB-Rb was co-transfected into #11 cell line, under the same conditions as previously indicated. […] Dose response curves are presented on FIG. 13A and FIG. 13B. Activity of other mutants was very similar to the WT or KD.
# CDK4 and CDK6 mutants with known function and unknown function taken from the COSMIC database were analyzed in the present assay and are summarized in Table 7A and Table 7B. The mutants were classified according to their activity. Table 7A and Table 7B also show the number of counts per mutant in the COSMIC database, type of cancer, and luciferase activity compared to the WT (being 100%).
# Rb/E2F1-Dp-1 complex [2] = conditions: CDK6 mutants, literature ref.; Hyper = hyperactive, KD = kinase dead; cited from earlier work
# CDK4 = molecular target: T2, CDK4 (Homo sapiens, UniProt P11802, R24A); assay: p16 activity assay with CDK4 (NanoBiT, cell line #11); type: cell-based; conditions: compared to WT CDK4
# T2 construct: expressed in transfected cells; host or cells: HEK293 CDK4/CDK6 double-knockout cells stably expressing E2F1-Dp-1-LB (clone #11); early experiments in plain HEK293
# From the text: as §1
# For the purpose of the current assay, the stable cell line #11 that we generated for the CDK activity assay was used and described above. HEK293 CDK DKO cells containing E2F1-Dp-1-LB was transiently transfected with CDK4/CDK6, CyclinD1, and SB-Rb. The transfected cells were then exposed to the natural inhibitor p16 (FIG. 25). When CDK4 or CDK6 is present, a decrease in activity was observed as Rb gets phosphorylated resulting in no Rb/E2F1-Dp-1 interaction. […] The data presented was a sample experiment where each condition was performed in triplicate and represented mean+SD.
# The conditions of the assay were optimized by using different p16 amounts and cell numbers (FIGS. 25A and 25B). Based on the data generated, it was decided that using 0.2×10^6 cells/ml and 10 ng of p16 would be preferable.
# To examine the ability of the assay to detect variants in CDKN2A that affect function, known loss of function mutants and unknown COSMIC mutants were created. Wild-type or mutated CDKN2A were prepared in a manner similar to that previously indicated. […] Therefore the p16 activity assay is capable of determining the relative activity level of p16 mutants. The data provided is in Luminescence (RLU) of a single experiment with each condition performed in triplicate and represent average+SD. Summary Table 13 reports p16 mutants tested.
# In addition to check functional state of p16 mutants, p16 activity assay can be used to look at p16 inhibition response of different CDK4 and CDK6 mutants. Different response of WT CDK4 and CDK6 and hyperactive mutants of CDK4 (R24A) and CDK6 (R31C) is shown on FIG. 28. […] The p16 activity assay is so sensitive and specific that hyperactive CDK4 and CDK6 mutants can show different response to mutant p16.
# Rb/E2F1-Dp-1 complex [3] = conditions: CDK4 mutants, literature ref.; Hyper = hyperactive, KD = kinase dead; cited from earlier work
# Rb/E2F1-Dp-1 complex [4] = assay: CDK4 mutant activity / drug resistance in NanoBiT assay, stable cell line #11; type: cell-based, human; conditions: CDK4 mutants, compared to the WT (being 100%)
# In short: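 Wild-type or mutant CDK4/CDK6, made by overlap-extension PCR site-directed mutagenesis and sequence-confirmed, was co-transfected with CyclinD1 and SB-Rb into stable NanoBiT line #11. Loss of Rb phosphorylation raises luminescence; activity expressed as luciferase signal relative to WT (100%), with drug dose-response curves for predicted resistance mutants.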
# T1 sequence (Q00534 whole entry R31C): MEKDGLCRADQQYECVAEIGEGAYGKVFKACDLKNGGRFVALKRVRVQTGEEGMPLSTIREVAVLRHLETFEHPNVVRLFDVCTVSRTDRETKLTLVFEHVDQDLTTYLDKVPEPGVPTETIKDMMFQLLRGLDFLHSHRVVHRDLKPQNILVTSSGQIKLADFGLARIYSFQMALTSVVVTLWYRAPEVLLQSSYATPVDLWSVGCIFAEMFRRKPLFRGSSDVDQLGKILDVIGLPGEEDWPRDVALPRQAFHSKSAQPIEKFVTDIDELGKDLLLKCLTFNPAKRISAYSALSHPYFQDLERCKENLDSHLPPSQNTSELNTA
Molecule,p16 inhibition response of hyperactive CDK6 mutant (luminescence) (CDK6),Luc activity (/wt) (Rb/E2F1-Dp-1 complex [1]; compared to the WT (being 100%)) [%],luciferase signal compared to WT CDK6 (in words) (Rb/E2F1-Dp-1 complex [1]; no drug),Reported activity (Rb/E2F1-Dp-1 complex [2]),p16 inhibition response of hyperactive CDK4 mutant (luminescence) (CDK4),Reported activity (Rb/E2F1-Dp-1 complex [3]),Luc. activity (/wt) (Rb/E2F1-Dp-1 complex [4]) [%]
"CDK6 R31C: CDK6 mutant, literature hyperactive",decreased level of luminescence,66,a little bit lower basal signal than WT,Hyper,–,–,–
B1,–,–,–,–,decreased level of luminescence,Hyper,79
